Data set [1] deals with Iron regulatory protein 1 (rIRP1). In words: EMSA. As to conditions: aminoallyl-UTP-ATTO-680 incorporated in the labeled probe; competitor unmodified; 100 ng probe heated 3 min at 95 C, 120 ng His-IRP, 15 min room temperature, then 50 ug sodium heparin 10 min; 5% native acrylamide gel, 1x TBE; binding buffer …. A general note: Mobility shift assays separate free from complexed probe on a gel.

Data set [2] concerns Iron regulatory protein 2 (rIRP2). In words: EMSA. As to conditions: aminoallyl-UTP-ATTO-680 incorporated in the labeled probe; competitor unmodified; 100 ng probe heated 3 min at 95 C, 120 ng His-IRP, 15 min room temperature, then 50 ug sodium heparin 10 min; 5% native acrylamide gel, 1x TBE; binding buffer ….

For FTL IRE WT, the binding signal (% of WT signal) in data set [1] and in data set [2] was 100 throughout.

For the origin of these results see publication PMC3585816.
